These results are taken from the DeepSol protein solubility set.

A short description of the data set: soluble on expression in E. coli; label from the status in PepcDB or PDB records.
On to “RELIRHGAEVHAVMSEAATKIIHPYAMEFATGNPVITEITGFIEHVELAGEHENKADLILVCPATANTISKIACGIDDTPVTTVVTTAFPHIPIMIAPAMHETMYRHPIVRENIERLKKLGVEFIGPRIEEGKAKVASIDEIVYRVIKKLHKKTLEGKRVL”, for which the “soluble on expression in E. coli” value was “not soluble”.

For the sequence “REVYVLVIGETARACNFGLYGYERNTTPLLDKMEGVVTFTDVLTQSNTTHKSVPMLLSAASAEDYDCLYRQKGIITAFKEAGFHTAFFSNQLPNHSFIDFLGMEADDWKFIKKDAPKGANISDDELLFLVEKELKAGHQKLFIVLHAYGSHFNYKERYPESMSVFKPDNLTDAKYENKEYLMNAYDNTIRYTDGFLASLITLLQKTNSFSAMLYTSDHGEDIFDDNRKLFLHASPVPSYYQLHVPFLIWLSKTYREKNVEVHEAILQNREKPVAGNASVFHTMLNLAGVQTPYRADSLSVAN”, the “soluble on expression in E. coli” value is recorded as “not soluble”.

As for “RFEHSLGVYHLADRALAHLDISGTRADTVRAAALLHDIGHGPYGHQTEGIIQRRLDRHHDDVAHLVSNGEPGAVLAAHGLDPDRVAALVAGHGKLGQLVAGELDVDRMDYLVRD”, the “soluble on expression in E. coli” value is listed as “soluble”.

As for “RHLCESRQQAQRWIRAGAVHVNHIPIDKPGTLVAVDATIQVKAKPAYVSRGGEKLAHALGVFPVVVRDRVCLDGGISTGGFTDCLLQAGAQLVYGIDVGYGQVDWKLRQDPRLILRERTNLRYLTPADLYTDDGPRPDLGVVDVSFISLTKVLPALWELLLPPRELIALIKPQFEVGRDRLGKNGVVRDAKARQEAVDQVITAAAALGWQCYGVTPSPILGPAGNQEFLAHFCCGANGVLENEMVS”, the “soluble on expression in E. coli” value is listed as “not soluble”.

Consider “RIKEKTISHWVAMQGIAMIQLNLLRTSQSQESTQATTMLGQKWYWRAKISPTPIKRMQQITISVSSKQAGPFREELIAFRYLP”, for which the “soluble on expression in E. coli” value is “not soluble”.

Take “RKEEVLFGSFRLFTVTPVRYIKEIVTIGFPASIQNLIYASISMVLTRLVTGWGDTAVAIQRVGGQVESVSWMVGEGFAAAVNSFTGQNFGAGLFDRVKKGFSAAVK”: the “soluble on expression in E. coli” value was “not soluble”.

With “RNQVEHEAKVSLAKSFGAGIAHEMRNPLSGLCTSIDVIQSVLPNKKAMGEKDQYVMSGEDVTLLREVSEDAMNIIHSGNETIDLLLTSIDENRVSRSSFKRYSAQSVVEKAIESFSYKRSTDRFAISFDARSEFDFLGSDTLLKYVMYNLFKNAFHHRSSDEFHIHVSMQSNDTANQIVVTDNGSGIAPDVIRHIFQDFYTTGKSGSYGLGLPFCKKVMRSFGGNIKCISQPGEWSQFTLTFPPITSDTVTEIKDELTKMKSILLVSNQDIIVQKMADISRFMGFDVTVLDVKSVFKKKEYEFEFDLIFVDVESLDVLENQLDRIESLLSFTEARVVYLFEHKPAQRAKKVGHDPIWVETQAWLLNTKATIERLLYDSTYISSTLPSAPL”, the “soluble on expression in E. coli” value was “not soluble”.

Consider “RPNVERDAQRRVNIRVTDEIVTALNERRIVMAFEPVVQAVSRAPAFHECLVRMKQDDGELLLAPDIVPVAEKLGLIRLVDHRVLELVVAELAAAPGVELSLNISPDTTMDADWWASIESLLGANPGVAERLIVEITETVAIQDLDDVRGFVNRLKNFGARIAIDDFGAGYTSFRNLRNLGVDIVKIDGAFVQNIARSADDRAFVQTLIDLARRLEIKTVAEWVQDEASAIMLRDWGCDYIQGRLIGLA”, for which the “soluble on expression in E. coli” value is listed as “not soluble”.

Take “RPRGPRAVFILPVTAQGEAVLIRQFRYPLRATITEIVAGGVEKGEDLGAAAARELLEEVGGAASEWVPLPGFYPQPSISGVVFYPLLALGVTLGAAQLEDTETIERVVLPLAEVYRMLEAGEIQDGPSSLTLWQARGELTRRGLL”: the “soluble on expression in E. coli” value was “soluble”.

As for “RQLALEAKGETPSAVTRLSVVAKSEPQDEQSRSQSARRIILSRLKAGEVDLLEEELGHLTTLTDVVKGADSLSAILPGDIAEDDITAVLCFVIEADQITFETVEVSPKISTPPVLKLAAEQAPTGRVEREKTTR”, the “soluble on expression in E. coli” value was “soluble”.

With “RSECMGFFRRLLGLSWISIPKLPKKERKNNHDESENESLGNGYDTGESENLSGYLNNSEYEDGPAGESADDPDDYIPPHKEEGENDSSQSIQMGSMTVELAQEEEKADEALLAEIKTDPRMDLASYKFPSVDLLTQYDLQQPPIDMNEIEENQKRIIATLDSFKIHVTPIKATVGPTVTLYEVAPDSGIKISRIRNLEDDIAMSLKAVGGIRIIAPMPGKGTIGIEVPNRKPQTVSMYSVLTSKKYQESDMDLPVALGKTITNEVFIFDLCKMPHLLIAGATGQGKSVGLNAMITSLLYKKHPAELKFVLVDPKMLEFAVYEAIERHYLAKLPDEDRAIVTDMTKVVPTLNSLCIEMDNRYRMLTEARVRNIKEYNDQIISGKLSRLHGHKFLPYIVLIVDEFADLIMTSGKEVERPITRIAQKARAAGIHMVVATQRPSTDIITGIIKANFPARIAFKVFSMIDSRTILDQPGANQLVGRGDMLFYQGKDTVRLQCAFLDTPECEAVTHHISLQESYTSAYELPEYVPEGEEGGPKAFNPQEKDPLFEEVARMVVNSQQGSTSNIQRKFNIGYNRAGRLMDQLEGAGIVSPQDGSKPRQVLIQDEMSLERLFETLR”, the “soluble on expression in E. coli” value is “not soluble”.

With “RSVAAPLVKLRKATQNIKEGNLDFVLDVEGTDEFSELCRDFEEMRRRLKESAEEKIAMDKENKELISNISHDLKTPITAVKGYVEGIMDGVADTPEKMDRYVRTIYNKTNEMDHLINELTFYSKIDTNRIPYTFSKLNVEDYFSDCAEEVGLELETRGIQLCYANYVDKDVLVIA”, the “soluble on expression in E. coli” value is “not soluble”.

On to “RSVAYDLIFGNKNTTKYYAQFVKEHKTHLYEQIKQINNDEFRFVEKTKRHNLG”, for which the “soluble on expression in E. coli” value is reported as “not soluble”.

For “RYDKPGDKIDDGTELKLKGEKLKYVSRGGLKLEKGLHVFGVSVANQIGIDIGASTGGFTDVMLQDGAKLVYAVDVGTNQLVWKLRQDPRVRSMEQYNFRYAQPEDFNEGQPVFASIDVSFISLSLILPALHNVLSDQGQVIALIKPQFEAGREQIGKKGIVKDKQIHEKVIQKVMDFASGYGFTVKGLDFSPIQGGHGN”, the “soluble on expression in E. coli” value was “not soluble”.

As to “SAEAEGLADWMSKLNETFTTVPLCYIAIPGSHDAMAYSLDMDSPLLEPDSLITMDLICCGCCRSIVKNWSITQDKTISEQLDAGMRYFDLRVAGKPGSSDFFFYHGLYTTITVKEAMEEVDTWLGKHSKEVVILAFSHFKEMSTEQHTKLMTFLKDHFKAKLCPDDGMPSLKDCWDKAYQVILSYDDRNRKQDRVLWPGIKYWWANNSDPNEAILFLDNKKQSGRPKGFFVAGLNLTFYGCSIFSNLTASLKEKTVTAYPLLLDWVKKQRPGSDTQSINIIAGDFFDVNSFAQDIIQLNDAKTN”, the “soluble on expression in E. coli” value is recorded as “soluble”.

For “SAHSAAAVPLGALEQGCPIRVEHDRRRRQFTVRLNGCHDRAVLLYEYVGKRIVDLQHTEVPDAYSGRGIAKHLAKAALDFVVEEDLKAHLTCWYIQKYVKENPLPQYLERLQP”, the “soluble on expression in E. coli” value is given as “soluble”.

Turning to “SAKVSELYDVTWEEMRDKMRKWREENSRNSEQIVEVGEELINEYASKLGDDIWIIYEQVMIAALDYGRDDLALFCLQELRRQFPGSHRVKRLTGMRFEAMERYDDAIQLYDRILQEDPTNTAARKRKIAIRKAQGKNVEAIRELNEYLEQFVGDQEAWHELAELYINEHDYAKAAFCLEELMMTNPHNHLYCQQYAEVKYTQGGLENLELSRKYFAQALKLNNRNMRALFGLYMSASHIASNPKASAKTKKDNMKYASWAASQINRAYQFAGRSKKETKYSLKAVEDMLETLQITQS”, the “soluble on expression in E. coli” value was “not soluble”.

As for “SALSCSLQGPPEGSIENLINTISRDVTTLQSYMQRRKEEYDCILKTCPVCGAVEEYAFSTVSPTATFEQLNPENRILYELQQINEQRRTLYEDIVSVQQKPECELCLLCALHESAFECGATPTANSFTSQVQSQHTQQQQTPVFSESVVPRPTILSNKTRVFVV”, the “soluble on expression in E. coli” value was “soluble”.

As for “SALTIFSVKDPQNSLWHSTNAEEIQQQLNAKGVRFERWQADRDLGAAPTAETVIAAYQHAIDKLVAEKGYQSWDVISLRADNPQKEALREKFLNEHTHGEDEVRFFVEGAGLFCLHIGDEVFQVLCEKNDLISVPAHTPHWFDMGSEPNFTAIRIFDNPEGWIAQFTGDDIASAYPRLA”, the “soluble on expression in E. coli” value is on record as “soluble”.

Turning to “SAQFINGTINSWFGNDTHEALERSLNLSKSALNLAADNALGNAVPVQIDLIGAASLPGDMGRVLEHYAGSGFAQLALYNAASGKIEKSINPHKLDQPFPGKARWEKIQRAGSVRDLESIGGVLYAQGWLSAGTHNGRDYALFFRQPVPKGVAEDAVLIEKARAKYAELSYSKKGLQT”, the “soluble on expression in E. coli” value is “not soluble”.

As to “SARRISSQGKVTISVDEYSSNPTQAFTHYNINQSRFQPPHVHMVEPLPYDAPKSVGHTRFVCVSDTHSRTDGIQMPFGDVLLHTGDFTELGLPSEVKKFNDWLGGLPYEYKVVIAGNHELTFDKDFMAELIKQDYYRFPSVSKLRSEDFDDVQSLLTNCVYLQDSEVTIKGFRIYGAPWTLWFNGWGFNLPRGQSLLDKWNQIPEDVDILMTHGPPLGFRDWLPKELQRVGCVELLNTVQKRVRPKLHAYGGIHEGYGIMTDGYTTFINSSTCTVSFQPTNPPIIFDLPNPGNS”, the “soluble on expression in E. coli” value is listed as “soluble”.

On to “SDFVITGGGIVGLATALRLQSLHPGARISVLEKEPAVARHQSGRNSGVIHAGVYYAPGSHKARFCARGVSSTRAFCDEHGIPYRICGKLIVATDAAELERMGTLETRARANGIVIERLSGEEARRLEPNIKAVGALLSPTTGIVDYGRVAERMAELFRDRGGEIRLDTEVTGGAESEAGVRLETTAGEISAGKAVFCGGLHADRLARAFGASLDFRIVPFRGEYFAIKNQPEDLVQHLIYPVPDPARPFLGVHLTRKMNGGFTVGPN”, for which the “soluble on expression in E. coli” value was “not soluble”.

For “SDHVDLPYNLTATKIDSDVFVVTDRDFYSSNVLVAKMLDGTVVIVSSPFENLGTQTLMDWVAKTMKPKKVVAINTHFHLDGTGGNEIYKKMGAETWSSDLTKQLRLEENKKDRIKAAEFYKNEDLKRRILSSHPVPADNVFDLKQGKVFSFSNELVEVSFPGPAHSPDNVVVYFPKKKLLFGGCMIKPKELGYLGDANVKAWPDSARRLKKFDAKIVIPGHGEWGGPEMVNKTIKVAEKAVGEMRL”, the “soluble on expression in E. coli” value is “soluble”.

“SDQVFVMGHRYPDMDVIGSSLGVMRIAEMNNRNAYVVVEPGKMSPDVKRLMNEIEEYPNVIKNIVTPQVALENITEKSLLVVVDTHKPSMVINKELLDSATNVVVVDHHRRSEEFVGNPVLVYIEPYASSTAELITELFEYQPDLEQVGKIEATALLSGIVVDTKNFTLRTGSRTFDAASYLRSLGADTILVQQFLKEDI”: the “soluble on expression in E. coli” value is listed as “not soluble”.

“SDRKSDRELLYFRKKLQRKLGPISIATPEALLNAHEMLRDKMHYFIEQTQCSVGIFIHRGFKHAGKVLLLMENEGDEELLAYARSLARNNGSVLDVLPETDGLPPTLSMGENRLKAGLPSTINISSYHFMLVSYRYWLRFAGECPSVIEHLPSTIIIHHRNDRSSTLKAAMI”: the “soluble on expression in E. coli” value was “not soluble”.

“SDRSAEFRKWKAQCLSKADLSRKGSVDEDVVELVQFLNMRDQFFTTSSCAGRILLLDRGINGFEVQKQNCCWLLVTHKLCVKDDVIVALKKANGDATLKFEPFVLHVQCRQLQDAQILHSMAIDSGFRNSGITVGKRGKTMLVVRSTHGLEVPLSHKGKLMVTEEYIDFLLNVANQKMEENKKRIERFYNCLQHALERETMTNLHPKIKEKNNSSYIHKKKRNPEKTRAQCITKESDEELENDDDDDLGINVTIFPEDY”: the “soluble on expression in E. coli” value is “soluble”.
